T1: full-length human Regnase-1 with a FLAG tag on the N-terminal side and a biotin ligase BirA recognition … (human, UniProt Q5D1E8 1-599, biotinylated at the BirA recognition sequence when required)
T1 sequence: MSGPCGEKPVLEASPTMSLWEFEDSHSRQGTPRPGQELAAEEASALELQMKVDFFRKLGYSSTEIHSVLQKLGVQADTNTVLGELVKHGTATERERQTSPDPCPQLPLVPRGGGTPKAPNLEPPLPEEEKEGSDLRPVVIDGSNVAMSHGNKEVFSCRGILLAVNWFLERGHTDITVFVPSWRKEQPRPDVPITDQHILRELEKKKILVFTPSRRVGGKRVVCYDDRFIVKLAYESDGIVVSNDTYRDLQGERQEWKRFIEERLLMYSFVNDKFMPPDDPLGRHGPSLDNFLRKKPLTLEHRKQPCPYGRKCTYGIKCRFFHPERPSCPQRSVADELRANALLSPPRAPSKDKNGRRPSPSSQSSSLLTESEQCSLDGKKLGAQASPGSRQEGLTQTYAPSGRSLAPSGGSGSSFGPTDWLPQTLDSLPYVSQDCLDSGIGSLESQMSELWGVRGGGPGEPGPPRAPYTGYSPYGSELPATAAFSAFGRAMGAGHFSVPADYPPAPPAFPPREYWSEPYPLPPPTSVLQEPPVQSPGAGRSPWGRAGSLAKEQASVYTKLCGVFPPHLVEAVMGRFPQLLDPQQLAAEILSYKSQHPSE

T2: C-terminal domain-deleted human Regnase-1 (amino acids 1 to 546) with N-terminal FLAG tag and C-terminal BirA … (human, UniProt Q5D1E8 1-546)
T2 sequence: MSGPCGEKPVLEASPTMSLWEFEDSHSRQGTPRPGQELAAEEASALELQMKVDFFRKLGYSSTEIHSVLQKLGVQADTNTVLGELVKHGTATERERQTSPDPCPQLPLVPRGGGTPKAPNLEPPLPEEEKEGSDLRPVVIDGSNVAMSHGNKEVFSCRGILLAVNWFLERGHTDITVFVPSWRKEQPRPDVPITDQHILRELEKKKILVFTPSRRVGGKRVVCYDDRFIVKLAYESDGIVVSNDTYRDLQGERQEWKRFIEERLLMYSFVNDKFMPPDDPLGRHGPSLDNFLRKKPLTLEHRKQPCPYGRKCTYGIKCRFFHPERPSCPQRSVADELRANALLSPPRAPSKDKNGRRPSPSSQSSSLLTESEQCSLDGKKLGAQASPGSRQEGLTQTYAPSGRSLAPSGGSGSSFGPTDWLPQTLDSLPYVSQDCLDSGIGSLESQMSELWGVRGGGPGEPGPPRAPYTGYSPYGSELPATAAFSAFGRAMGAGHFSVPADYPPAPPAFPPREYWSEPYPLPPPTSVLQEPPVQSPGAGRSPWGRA

T3: C-terminal human Regnase-1 (amino acids 301 to 599) with N-terminal FLAG tag and C-terminal BirA recognition … (human, UniProt Q5D1E8 301-599)
T3 sequence: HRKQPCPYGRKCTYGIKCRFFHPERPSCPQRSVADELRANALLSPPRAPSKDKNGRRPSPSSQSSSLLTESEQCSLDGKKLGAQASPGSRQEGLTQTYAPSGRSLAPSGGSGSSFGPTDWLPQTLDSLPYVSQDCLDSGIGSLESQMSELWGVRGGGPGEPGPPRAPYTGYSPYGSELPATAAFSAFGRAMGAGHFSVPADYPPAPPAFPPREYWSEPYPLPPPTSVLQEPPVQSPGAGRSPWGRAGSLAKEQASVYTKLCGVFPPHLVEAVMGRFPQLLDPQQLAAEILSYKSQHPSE

B1: PP14 (peptide)
peptide: XRFGVWSWIYPD
HELM: PEPTIDE1{[meA].R.F.G.V.W.S.W.I.Y.P.D.[C1CCN([*:1])C1]}$PEPTIDE1,PEPTIDE1,1:R1-12:R3$$$V2.0
SMILES: CC[C@H](C)[C@@H]1NC(=O)[C@H](Cc2c[nH]c3ccccc23)NC(=O)[C@H](CO)NC(=O)[C@H](Cc2c[nH]c3ccccc23)NC(=O)[C@H](C(C)C)NC(=O)CNC(=O)[C@H](Cc2ccccc2)NC(=O)[C@H](CCCNC(=N)N)NC(=O)[C@H](C)N(C)C(=O)C[C@@H](C(=O)N2CCCC2)NC(=O)[C@@H]2CCCN2C(=O)[C@H](Cc2ccc(O)cc2)NC1=O
B2: PP15 (peptide)
peptide: XNSWYINIWGHD
HELM: PEPTIDE1{[meA].N.S.W.Y.I.N.I.W.G.H.D.[C1CCN([*:1])C1]}$PEPTIDE1,PEPTIDE1,1:R1-12:R3$$$V2.0
SMILES: CC[C@H](C)[C@@H]1NC(=O)[C@H](CC(N)=O)NC(=O)[C@H]([C@@H](C)CC)NC(=O)[C@H](Cc2ccc(O)cc2)NC(=O)[C@H](Cc2c[nH]c3ccccc23)NC(=O)[C@H](CO)NC(=O)[C@H](CC(N)=O)NC(=O)[C@H](C)N(C)C(=O)C[C@@H](C(=O)N2CCCC2)NC(=O)[C@H](Cc2c[nH]cn2)NC(=O)CNC(=O)[C@H](Cc2c[nH]c3ccccc23)NC1=O
B3: PP16 (peptide)
peptide: XNFSNSWYNIWD
HELM: PEPTIDE1{[meA].N.F.S.N.S.W.Y.N.I.W.D.[C1CCN([*:1])C1]}$PEPTIDE1,PEPTIDE1,1:R1-12:R3$$$V2.0
SMILES: CC[C@H](C)[C@@H]1NC(=O)[C@H](CC(N)=O)NC(=O)[C@H](Cc2ccc(O)cc2)NC(=O)[C@H](Cc2c[nH]c3ccccc23)NC(=O)[C@H](CO)NC(=O)[C@H](CC(N)=O)NC(=O)[C@H](CO)NC(=O)[C@H](Cc2ccccc2)NC(=O)[C@H](CC(N)=O)NC(=O)[C@H](C)N(C)C(=O)C[C@@H](C(=O)N2CCCC2)NC(=O)[C@H](Cc2c[nH]c3ccccc23)NC1=O
B4: PP17 (peptide)
peptide: XDIWFDYWDWD
HELM: PEPTIDE1{[meA].D.I.W.F.D.Y.W.D.W.D.[C1CCN([*:1])C1]}$PEPTIDE1,PEPTIDE1,1:R1-11:R3$$$V2.0
SMILES: CC[C@H](C)[C@@H]1NC(=O)[C@H](CC(=O)O)NC(=O)[C@H](C)N(C)C(=O)C[C@@H](C(=O)N2CCCC2)NC(=O)[C@H](Cc2c[nH]c3ccccc23)NC(=O)[C@H](CC(=O)O)NC(=O)[C@H](Cc2c[nH]c3ccccc23)NC(=O)[C@H](Cc2ccc(O)cc2)NC(=O)[C@H](CC(=O)O)NC(=O)[C@H](Cc2ccccc2)NC(=O)[C@H](Cc2c[nH]c3ccccc23)NC1=O
B5: PP18 (peptide)
peptide: XDIWFDYWDYD
HELM: PEPTIDE1{[meA].D.I.W.F.D.Y.W.D.Y.D.[C1CCN([*:1])C1]}$PEPTIDE1,PEPTIDE1,1:R1-11:R3$$$V2.0
SMILES: CC[C@H](C)[C@@H]1NC(=O)[C@H](CC(=O)O)NC(=O)[C@H](C)N(C)C(=O)C[C@@H](C(=O)N2CCCC2)NC(=O)[C@H](Cc2ccc(O)cc2)NC(=O)[C@H](CC(=O)O)NC(=O)[C@H](Cc2c[nH]c3ccccc23)NC(=O)[C@H](Cc2ccc(O)cc2)NC(=O)[C@H](CC(=O)O)NC(=O)[C@H](Cc2ccccc2)NC(=O)[C@H](Cc2c[nH]c3ccccc23)NC1=O
B6: PP19 (peptide)
peptide: XVFYKIWYNWD
HELM: PEPTIDE1{[meA].V.F.Y.K.I.W.Y.N.W.D.[C1CCN([*:1])C1]}$PEPTIDE1,PEPTIDE1,1:R1-11:R3$$$V2.0
SMILES: CC[C@H](C)[C@@H]1NC(=O)[C@H](CCCCN)NC(=O)[C@H](Cc2ccc(O)cc2)NC(=O)[C@H](Cc2ccccc2)NC(=O)[C@H](C(C)C)NC(=O)[C@H](C)N(C)C(=O)C[C@@H](C(=O)N2CCCC2)NC(=O)[C@H](Cc2c[nH]c3ccccc23)NC(=O)[C@H](CC(N)=O)NC(=O)[C@H](Cc2ccc(O)cc2)NC(=O)[C@H](Cc2c[nH]c3ccccc23)NC1=O
B7: PP20 (peptide)
peptide: XKFWIHHSFED
HELM: PEPTIDE1{[meA].K.F.W.I.H.H.S.F.E.D.[C1CCN([*:1])C1]}$PEPTIDE1,PEPTIDE1,1:R1-11:R3$$$V2.0
SMILES: CC[C@H](C)[C@@H]1NC(=O)[C@H](Cc2c[nH]c3ccccc23)NC(=O)[C@H](Cc2ccccc2)NC(=O)[C@H](CCCCN)NC(=O)[C@H](C)N(C)C(=O)C[C@@H](C(=O)N2CCCC2)NC(=O)[C@H](CCC(=O)O)NC(=O)[C@H](Cc2ccccc2)NC(=O)[C@H](CO)NC(=O)[C@H](Cc2c[nH]cn2)NC(=O)[C@H](Cc2c[nH]cn2)NC1=O

What was measured:
Test in all cases: cell-based or functional assay
[1] = molecular target: T1, full-length human Regnase-1 with a FLAG …
[2] = molecular target: T2, C-terminal domain-deleted human …
[3] = molecular target: T3, C-terminal human Regnase-1 (amino acids …)
[4] = molecular target: T1, full-length human Regnase-1 with a FLAG …; remark: listed apart in the source
[5] = molecular target: T2, C-terminal domain-deleted human …; remark: listed apart in the source
[6] = molecular target: T3, C-terminal human Regnase-1 (amino acids …); remark: listed apart in the source

50% inhibition concentration, Regnase-1 phosphorylation by TBK1 (AlphaScreen) [1]	50% inhibition concentration, Regnase-1 phosphorylation by TBK1 (AlphaScreen) [2]	50% inhibition concentration, Regnase-1 phosphorylation by TBK1 (AlphaScreen) [3]	50% inhibition concentration, Regnase-1 phosphorylation by IKKβ (AlphaScreen) [4]	50% inhibition concentration, Regnase-1 phosphorylation by IKKβ (AlphaScreen) [5]	50% inhibition concentration, Regnase-1 phosphorylation by IKKβ (AlphaScreen) [6]	Binder
3.1 µM	5.2 µM	6.8 µM	1.6 µM	9 µM	6.5 µM	B1
8.5 µM	9.5 µM	17.4 µM	5.6 µM	31 µM	22 µM	B2
52.4 µM	38.1 µM	> 62.1 µM	20.6 µM	30.8 µM	42.2 µM	B3
< 0.06 µM	0.3 µM	< 0.06 µM	0.5 µM	0.3 µM	0.7 µM	B4
0.6 µM	1.8 µM	0.9 µM	0.4 µM	0.2 µM	0.5 µM	B5
3.7 µM	4.6 µM	5.8 µM	5.4 µM	12.6 µM	10.1 µM	B6
38.5 µM	> 62.1 µM	> 62.1 µM	24.7 µM	> 62.1 µM	> 62.1 µM	B7
